Reference: patent US20170166877A1

Tests used:
Assay in all cases: cell-based or functional assay
[1] = target: Four tandem FRBL domains encoded by pBP0725 (pSH1-FRBl.FRBl′.LS.FRBl″.FRBl′″)
[2] = target: Non-myristoylated inducible MyD88/CD40 with two FKBP12v36 domains, encoded by pBP0606 (pSFG-k-ΔMyr.iMC.2A-ΔCD19) (human)
[3] = target: First generation Her2-CAR fused to two tandem FRBl domains
[4] = target: First generation CD19-CAR fused to two tandem FRBl domains, co-expressed with inducible Caspase-9
[5] = target: Four tandem FKBP12 (Fpk) domains encoded by pBP0722 (pSH1-Fpk-Fpk′.LS.Fpk″.Fpk′″.LS.HA) (Homo sapiens (Human)) (UniProt P62942)
[6] = target: FRB.FKBP.ΔC9 encoded by pBP1310 (pSFG.FRB.FKBP.ΔC9.T2A-ΔCD19)
[7] = target: FKBP.FRB.ΔC9 encoded by pBP1311 (pSFG.FKBP.FRB.ΔC9.T2A-ΔCD19)
[8] = target: MyD88-CD40 fused to wild-type FKBP12 and FRBL, encoded by pBP1440
[9] = target: FKBP12v36-ΔCaspase-9 encoded by the retroviral vectors pSFG-iC9.T2A-ΔCD19 (pBP0220) and its FRBL derivatives pBP0755, pBP0756, pBP0757 (human)

Sequence of Non-myristoylated inducible MyD88/CD40 with two FKBP12v36 domains, encoded by pBP0606 (pSFG-k-ΔMyr.iMC.2A-ΔCD19) (human) (chain, as listed by the source mutant limits assumed): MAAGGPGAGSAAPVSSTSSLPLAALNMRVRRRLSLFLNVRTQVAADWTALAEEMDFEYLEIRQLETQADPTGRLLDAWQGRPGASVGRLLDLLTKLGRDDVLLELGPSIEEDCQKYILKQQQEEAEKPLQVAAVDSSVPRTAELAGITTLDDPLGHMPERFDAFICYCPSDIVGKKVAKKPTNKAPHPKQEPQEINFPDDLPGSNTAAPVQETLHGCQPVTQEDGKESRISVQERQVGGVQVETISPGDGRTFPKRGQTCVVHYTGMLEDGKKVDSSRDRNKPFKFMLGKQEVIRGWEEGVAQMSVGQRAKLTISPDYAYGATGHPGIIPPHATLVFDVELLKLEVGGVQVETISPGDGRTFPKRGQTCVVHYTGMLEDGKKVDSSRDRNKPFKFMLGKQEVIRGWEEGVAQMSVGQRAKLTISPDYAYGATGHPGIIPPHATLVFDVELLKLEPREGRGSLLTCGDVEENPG
Sequence of MyD88-CD40 fused to wild-type FKBP12 and FRBL, encoded by pBP1440 (chain): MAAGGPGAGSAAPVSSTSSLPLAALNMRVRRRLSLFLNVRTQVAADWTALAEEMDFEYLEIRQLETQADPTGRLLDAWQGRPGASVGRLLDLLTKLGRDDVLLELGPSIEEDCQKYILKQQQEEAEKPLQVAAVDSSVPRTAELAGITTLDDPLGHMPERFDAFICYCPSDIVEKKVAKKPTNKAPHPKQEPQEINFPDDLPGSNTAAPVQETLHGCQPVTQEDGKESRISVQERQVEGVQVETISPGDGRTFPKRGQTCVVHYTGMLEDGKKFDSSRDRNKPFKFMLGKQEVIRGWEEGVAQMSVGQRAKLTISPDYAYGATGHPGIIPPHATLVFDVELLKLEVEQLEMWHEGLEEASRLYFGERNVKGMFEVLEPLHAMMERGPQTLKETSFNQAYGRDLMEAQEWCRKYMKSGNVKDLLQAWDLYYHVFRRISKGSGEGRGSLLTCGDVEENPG
Sequence of Two FRBL domains fused to ΔCaspase-9, encoded by pBP0668 (pSFG-FRBlx2.Caspase9.2A-Q.8stm.CD3zeta) (chain): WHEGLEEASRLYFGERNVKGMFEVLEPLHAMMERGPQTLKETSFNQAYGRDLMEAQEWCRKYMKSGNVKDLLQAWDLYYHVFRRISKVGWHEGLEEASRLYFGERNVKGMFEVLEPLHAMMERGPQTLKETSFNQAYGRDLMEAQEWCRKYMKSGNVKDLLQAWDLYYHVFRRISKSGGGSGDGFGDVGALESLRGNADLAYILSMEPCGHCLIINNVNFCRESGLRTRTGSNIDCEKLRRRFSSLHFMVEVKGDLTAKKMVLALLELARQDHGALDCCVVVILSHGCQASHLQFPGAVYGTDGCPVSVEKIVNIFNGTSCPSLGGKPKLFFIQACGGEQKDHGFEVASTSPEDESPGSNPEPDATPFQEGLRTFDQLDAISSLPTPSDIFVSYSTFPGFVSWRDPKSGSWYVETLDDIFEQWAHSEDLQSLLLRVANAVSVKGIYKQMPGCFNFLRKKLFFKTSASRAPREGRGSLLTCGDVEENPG
Sequence of FKBP.FRB.ΔC9 encoded by pBP1311 (pSFG.FKBP.FRB.ΔC9.T2A-ΔCD19) (chain): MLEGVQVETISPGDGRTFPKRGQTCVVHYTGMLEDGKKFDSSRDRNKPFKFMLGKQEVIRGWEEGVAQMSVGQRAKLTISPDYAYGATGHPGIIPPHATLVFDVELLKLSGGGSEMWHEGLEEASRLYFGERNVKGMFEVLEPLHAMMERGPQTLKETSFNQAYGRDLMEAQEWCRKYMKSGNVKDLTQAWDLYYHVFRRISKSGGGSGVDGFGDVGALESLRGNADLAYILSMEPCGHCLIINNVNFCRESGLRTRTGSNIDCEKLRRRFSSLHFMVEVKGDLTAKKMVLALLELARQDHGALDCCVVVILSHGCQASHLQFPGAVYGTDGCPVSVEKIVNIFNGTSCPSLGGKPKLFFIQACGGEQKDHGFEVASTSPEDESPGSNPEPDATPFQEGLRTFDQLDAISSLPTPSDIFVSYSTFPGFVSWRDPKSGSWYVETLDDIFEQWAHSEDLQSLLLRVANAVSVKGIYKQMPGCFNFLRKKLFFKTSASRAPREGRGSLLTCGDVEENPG
Sequence of FRB.FKBP.ΔC9 encoded by pBP1310 (pSFG.FRB.FKBP.ΔC9.T2A-ΔCD19) (chain): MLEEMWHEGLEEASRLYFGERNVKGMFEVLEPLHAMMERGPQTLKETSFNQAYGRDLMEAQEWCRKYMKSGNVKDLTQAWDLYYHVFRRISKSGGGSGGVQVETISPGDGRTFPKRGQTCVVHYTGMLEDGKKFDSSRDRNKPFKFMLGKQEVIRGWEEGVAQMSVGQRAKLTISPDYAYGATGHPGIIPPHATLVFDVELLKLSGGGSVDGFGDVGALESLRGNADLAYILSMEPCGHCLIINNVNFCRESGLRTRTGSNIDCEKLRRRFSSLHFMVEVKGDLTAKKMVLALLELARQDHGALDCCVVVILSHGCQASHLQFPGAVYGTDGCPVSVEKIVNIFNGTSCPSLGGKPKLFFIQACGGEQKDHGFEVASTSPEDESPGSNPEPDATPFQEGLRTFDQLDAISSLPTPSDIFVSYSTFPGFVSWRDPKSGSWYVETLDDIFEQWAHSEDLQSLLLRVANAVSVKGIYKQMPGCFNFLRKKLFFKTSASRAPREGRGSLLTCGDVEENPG
Sequence of Four tandem FRBL domains encoded by pBP0725 (pSH1-FRBl.FRBl′.LS.FRBl″.FRBl′″) (chain, as listed by the source limits assumed): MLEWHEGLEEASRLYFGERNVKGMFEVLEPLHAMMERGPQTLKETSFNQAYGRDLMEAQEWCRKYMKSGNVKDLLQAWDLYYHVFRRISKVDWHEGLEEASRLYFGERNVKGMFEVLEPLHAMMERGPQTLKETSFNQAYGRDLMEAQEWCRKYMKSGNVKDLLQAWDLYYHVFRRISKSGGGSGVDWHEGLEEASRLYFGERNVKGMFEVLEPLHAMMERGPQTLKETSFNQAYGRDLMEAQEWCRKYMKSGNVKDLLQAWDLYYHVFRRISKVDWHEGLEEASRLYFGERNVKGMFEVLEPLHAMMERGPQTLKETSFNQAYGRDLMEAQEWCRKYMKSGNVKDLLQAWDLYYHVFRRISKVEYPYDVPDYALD

FKBP12v36-ΔCaspase-9 fusion encoded by pBP0044 (pSH1-iCaspase9wt)
IC50 of rapamycin or C7-isopropoxy-rapamycin for loss of constitutive SRα-SEAP reporter activity (cell death), transfected 293 cells [1]: 3 nM

Two FRBL domains fused to ΔCaspase-9, encoded by pBP0668 (pSFG-FRBlx2.Caspase9.2A-Q.8stm.CD3zeta)
rapamycin level giving elimination of CD34+CD19+ doubly transduced primary T cells (flow cytometry, 24 h) [2]: 2 nM

Inducible Caspase-9 (FKBP-tagged Caspase-9) as used in Example 17
decrease of constitutive SRα-SEAP activity with rapamycin, transfected 293 cells (% decrease of SEAP activity) [3]: 50
decrease of constitutive SRα-SEAP activity with rapamycin, transfected 293 cells (% decrease of SEAP activity) [4]: 50

FRBL-ΔCaspase-9 fusion encoded by pBP0463 (pSH1-FRBL.dCaspase9.T2A)
IC50 of rapamycin or C7-isopropoxy-rapamycin for loss of constitutive SRα-SEAP reporter activity (cell death), transfected 293 cells [5]: 3 nM

FRB.FKBP.ΔC9 encoded by pBP1310 (pSFG.FRB.FKBP.ΔC9.T2A-ΔCD19)
lowest rapamycin concentration with high activity (caspase 3/7 IncuCyte assay and SRα-SEAP assay), transfected 293 cells [6]: 100 pM

FKBP.FRB.ΔC9 encoded by pBP1311 (pSFG.FKBP.FRB.ΔC9.T2A-ΔCD19)
lowest rapamycin concentration with high activity (caspase 3/7 IncuCyte assay and SRα-SEAP assay), transfected 293 cells [7]: 100 pM

MyD88-CD40 fused to wild-type FKBP12 and FRBL, encoded by pBP1440
EC50 of rapamycin or isobutyloxyrapamycin in the NF-κB SeAP reporter assay, transfected 293T cells [8]: < 1 nM

FKBP12v36-ΔCaspase-9 encoded by the retroviral vectors pSFG-iC9.T2A-ΔCD19 (pBP0220) and its FRBL derivatives pBP0755, pBP0756, pBP0757
rapamycin concentration without effect in the SRα-SEAP assay, transfected 293 cells [9]: > 1000 nM
